According to PMC5845987:

What was measured:
[1] = biological target: CCAAT/enhancer binding protein β (C/EBPβ) (UniProt P17676)
[2] = biological target: CCAAT/enhancer binding protein β (C/EBPβ) (UniProt P17676); remark: listed apart in the source

Chain of UniProt P17676 (P17676 whole entry): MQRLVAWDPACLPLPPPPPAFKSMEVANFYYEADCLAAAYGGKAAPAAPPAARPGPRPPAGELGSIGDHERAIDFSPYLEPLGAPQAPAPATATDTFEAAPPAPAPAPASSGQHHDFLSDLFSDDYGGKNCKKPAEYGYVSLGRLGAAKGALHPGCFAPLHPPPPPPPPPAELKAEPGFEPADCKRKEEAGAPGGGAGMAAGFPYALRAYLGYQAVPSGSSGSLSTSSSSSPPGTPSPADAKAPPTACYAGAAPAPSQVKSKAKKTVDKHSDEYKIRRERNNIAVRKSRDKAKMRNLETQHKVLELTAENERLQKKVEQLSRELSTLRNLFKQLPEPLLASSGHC

B1: HPV8 E2 protein (human papillomavirus type 8 transcription factor E2) (natural protein)
chain: MENLSERFNVLQDQLMNIYEAAEQTLEAQIAHWLLLRKEAVLLYFARQKGITRIGYQPVPPLAVSEAKAKQAIGIMLQLQSLQKSEFADEPWTLVDTSIETYKNAPENHFKKGATPVEVIYDKQPDNANVYTMWKHIYYTDADDKWHKTTSGVNQTGIYYMQGSFRHYYVVFADDARRYSATGEWEVKINKDTVFAPVTSSTPPGSPPGQADTDTAAKTPTTSADSTSRQQRSPAKQPQQTETKGRRYGRRPSSRTRPQKEQRRSRSRHRTRSRSRSLSRVRAVGSTTVSRSRSSSLTKAVRPRSRSRSRGRATATSRRRAGRGSPRRRRSTSRSPSTNTFKRSQRGGGRRGRGRGSRGRRERSSSTSPTPTKRSRGESSRLRGVSPSEVGRSVQSVSAKHTGRLGRLLDEAIDPPVILVRGEANTLKCFRNRARVRYRGLFKYFSTTWSWVAGDSTERLGRSRMLILFTSAGQRKDFDETVKYPKGVDTSYGNLDSL
[1]
  endogenous S100A8 mRNA (qRT-PCR) in RTS3b cells co-transfected with HPV8 E2 and C/EBPβ: enhancement of C/EBPβ-mediated induction: > 25 fold
  endogenous S100A8 protein level (Western blot quantification) in RTS3b cells co-transfected with HPV8 E2 and C/EBPβ: 90 fold
  endogenous S100A9 mRNA (qRT-PCR) in RTS3b cells co-transfected with HPV8 E2 and C/EBPβ: enhancement of C/EBPβ-mediated induction: 6 fold
  endogenous S100A9 protein level (Western blot quantification) in RTS3b cells co-transfected with HPV8 E2 and C/EBPβ: 31 fold
[2]
  murine S100A8 promoter luciferase reporter activity in RTS3b cells co-transfected with 0.005 μg C/EBPβ and 0.005, 0.04 or 0.2 μg HPV8 E2 expression vector (control set at 1): 7 fold
